Results: the supplement of paper PMC10567573

B1: PBXIP1 (parent)
chain: FGEDGIFRHDRLRFRDFVDALEDS
B2: C8orf76 (parent)
chain: YCAKLCEPQWFYEETESSDDVEVL
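Further: lentivirally expressed fusions sorted by FACS into six bins by GFP to DsRed ratio, PSI derived from sequencing read proportions per bin multiplied by bin number.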

Variants of: B1
Test: protein stability index of a GFP-peptide fusion (GPS, HEK-293T) (PSI 1-6); higher = more stable
Conditions: c terminus: a fixed tail appended
Variant FGERGIFRHDRLRFRDFVDALEDS [D4R] has a protein stability index of 2.74. FGEIGIFRHDRLRFRDFVDALEDS [D4I] gave a protein stability index of 1.73. Variant FGEEGIFRHDRLRFRDFVDALEDS [D4E] has a protein stability index of 3.08. FGEQGIFRHDRLRFRDFVDALEDS [D4Q] showed a protein stability index of 1.83. In the case of FGENGIFRHDRLRFRDFVDALEDS [D4N], the protein stability index is reported as 1.98. Variant FGEAGIFRHDRLRFRDFVDALEDS [D4A] has a protein stability index of 1.62. For FGEHGIFRHDRLRFRDFVDALEDS [D4H], the protein stability index was 1.89. With FGEVGIFRHDRLRFRDFVDALEDS [D4V] the protein stability index was 2.76.

Variants of: B2
Test: as above
Conditions: c terminus: a fixed tail appended
With YCAKLCEPQWFYEETESSDDVAVL [E22A] the protein stability index was 2.2. Work on YCAKLCEPQWFYEETESSDDVMVL [E22M] yielded a protein stability index of 1.49. YCAKLCEPQWFYEETESSDDVYVL [E22Y] gave a protein stability index of 1.63. YCAKLCEPQWFYEETESSDDVVVL [E22V] gave a protein stability index of 1.36. For YCAKLCEPQWFYEETESSDDVSVL [E22S], the protein stability index was 2.31. With YCAKLCEPQWFYEETESSDDVDVL [E22D] the protein stability index was 1.98. YCAKLCEPQWFYEETESSDDVCVL [E22C] showed a protein stability index of 2.06. For YCAKLCEPQWFYEETESSDDVQVL [E22Q], the protein stability index was 2.61. With YCAKLCEPQWFYEETESSDDVHVL [E22H] the protein stability index was 2.06. For YCAKLCEPQWFYEETESSDDVWVL [E22W], the protein stability index was 2.28. Work on YCAKLCEPQWFYEETESSDDVNVL [E22N] yielded a protein stability index of 2.14. For YCAKLCEPQWFYEETESSDDVKVL [E22K], the protein stability index was 2.21. For YCAKLCEPQWFYEETESSDDVRVL [E22R], the protein stability index was 2.14. Work on YCAKLCEPQWFYEETESSDDVPVL [E22P] yielded a protein stability index of 2.33. Variant YCAKLCEPQWFYEETESSDDVLVL [E22L] has a protein stability index of 1.38. With YCAKLCEPQWFYEETESSDDVTVL [E22T] the protein stability index was 2.07. For YCAKLCEPQWFYEETESSDDVGVL [E22G], the protein stability index was 2.31. YCAKLCEPQWFYEETESSDDVIVL [E22I] gave a protein stability index of 2.03. YCAKLCEPQWFYEETESSDDVFVL [E22F] gave a protein stability index of 1.6. YCAKLCEPQWFYEETESSDDVEQL [V23Q] gave a protein stability index of 2.8. Variant YCAKLCEPQWFYEETESSDDVEAL [V23A] has a protein stability index of 2.68. Variant YCAKLCEPQWFYEETESSDDVELL [V23L] has a protein stability index of 2.05. Work on YCAKLCEPQWFYEETESSDDVEIL [V23I] yielded a protein stability index of 2.08. In the case of YCAKLCEPQWFYEETESSDDVEML [V23M], the protein stability index is reported as 2.48. In the case of YCAKLCEPQWFYEETESSDDVEDL [V23D], the protein stability index is reported as 2.41. Work on YCAKLCEPQWFYEETESSDDVEKL [V23K] yielded a protein stability index of 1.96. With YCAKLCEPQWFYEETESSDDVENL [V23N] the protein stability index was 3.18. YCAKLCEPQWFYEETESSDDVEPL [V23P] showed a protein stability index of 2.87. YCAKLCEPQWFYEETESSDDVECL [V23C] gave a protein stability index of 2.47. Work on YCAKLCEPQWFYEETESSDDVERL [V23R] yielded a protein stability index of 2.44. Work on YCAKLCEPQWFYEETESSDDVEHL [V23H] yielded a protein stability index of 2.62. YCAKLCEPQWFYEETESSDDVEYL [V23Y] showed a protein stability index of 2.78. Variant YCAKLCEPQWFYEETESSDDVEGL [V23G] has a protein stability index of 2.39. With YCAKLCEPQWFYEETESSDDVEWL [V23W] the protein stability index was 1.98. In the case of YCAKLCEPQWFYEETESSDDVETL [V23T], the protein stability index is reported as 2.17. Variant YCAKLCEPQWFYEETESSDDVEFL [V23F] has a protein stability index of 2.45. In the case of YCAKLCEPQWFYEETESSDDVESL [V23S], the protein stability index is reported as 2.53. For YCAKLCEPQWFYEETESSDDVEEL [V23E], the protein stability index was 2.33. With YCAKLCEPQWFYEETESSDNVEVL [D20N] the protein stability index was 2.05. Variant YCAKLCEPQWFYEETESSDPVEVL [D20P] has a protein stability index of 1.81. Variant YCAKLCEPQWFYEETESSDYVEVL [D20Y] has a protein stability index of 1.76. YCAKLCEPQWFYEETESSDVVEVL [D20V] showed a protein stability index of 1.86. YCAKLCEPQWFYEETESSDWVEVL [D20W] showed a protein stability index of 1.79. Variant YCAKLCEPQWFYEETESSDTVEVL [D20T] has a protein stability index of 2.18. For YCAKLCEPQWFYEETESSDQVEVL [D20Q], the protein stability index was 1.86. In the case of YCAKLCEPQWFYEETESSDSVEVL [D20S], the protein stability index is reported as 2.29. In the case of YCAKLCEPQWFYEETESSDRVEVL [D20R], the protein stability index is reported as 1.5. For YCAKLCEPQWFYEETESSDMVEVL [D20M], the protein stability index was 2.02. In the case of YCAKLCEPQWFYEETESSDDVEVI [L24I], the protein stability index is reported as 2.73. YCAKLCEPQWFYEETESSDDVEVF [L24F] gave a protein stability index of 2.43. Variant YCAKLCEPQWFYEETESSDDVEVK [L24K] has a protein stability index of 3. Variant YCAKLCEPQWFYEETESSDDVEVR [L24R] has a protein stability index of 2.78. Variant YCAKLCEPQWFYEETESSDDVEVQ [L24Q] has a protein stability index of 1.86. With YCAKLCEPQWFYEETESSDDVEVN [L24N] the protein stability index was 2.36. With YCAKLCEPQWFYEETESSDDVEVV [L24V] the protein stability index was 2.31. Work on YCAKLCEPQWFYEETESSDDVEVP [L24P] yielded a protein stability index of 2.69. YCAKLCEPQWFYEETESSDDVEVT [L24T] showed a protein stability index of 2.11. Work on YCAKLCEPQWFYEETESSDDVEVM [L24M] yielded a protein stability index of 2.65. For YCAKLCEPQWFYEETESSDDVEVC [L24C], the protein stability index was 2.9. YCAKLCEPQWFYEETESSDDVEVD [L24D] gave a protein stability index of 2.56. For YCAKLCEPQWFYEETESSDDVEVE [L24E], the protein stability index was 2.62. For YCAKLCEPQWFYEETESSDDVEVH [L24H], the protein stability index was 2.15. YCAKLCEPQWFYEETESSDDVEVG [L24G] gave a protein stability index of 2.54. Variant YCAKLCEPQWFYEETESSDDVEVA [L24A] has a protein stability index of 2.45. In the case of YCAKLCEPQWFYEETESSDDVEVY [L24Y], the protein stability index is reported as 1.76. Variant YCAKLCEPQWFYEETESSDDVEVS [L24S] has a protein stability index of 2.66. YCAKLCEPQWFYEETESSDDVEVW [L24W] gave a protein stability index of 1.85. With YCAKLCEPQWFYEETESSDDPEVL [V21P] the protein stability index was 2.38. YCAKLCEPQWFYEETESSDDWEVL [V21W] gave a protein stability index of 2.04. For YCAKLCEPQWFYEETESSDDTEVL [V21T], the protein stability index was 3.28. In the case of YCAKLCEPQWFYEETESSDDIEVL [V21I], the protein stability index is reported as 2.39. Variant YCAKLCEPQWFYEETESSDDYEVL [V21Y] has a protein stability index of 2.48. For YCAKLCEPQWFYEETESSDDNEVL [V21N], the protein stability index was 2.35. YCAKLCEPQWFYEETESSDDCEVL [V21C] showed a protein stability index of 2.41. YCAKLCEPQWFYEETESSDDEEVL [V21E] showed a protein stability index of 2.43. For YCAKLCEPQWFYEETESSDDGEVL [V21G], the protein stability index was 2.56. In the case of YCAKLCEPQWFYEETESSDDSEVL [V21S], the protein stability index is reported as 2.46. YCAKLCEPQWFYEETESSDDHEVL [V21H] gave a protein stability index of 2.27. Variant YCAKLCEPQWFYEETESSDDFEVL [V21F] has a protein stability index of 2.12. With YCAKLCEPQWFYEETESSDDDEVL [V21D] the protein stability index was 2.53. Work on YCAKLCEPQWFYEETESSDDKEVL [V21K] yielded a protein stability index of 2.99. With YCAKLCEPQWFYEETESSDDQEVL [V21Q] the protein stability index was 2.53. YCAKLCEPQWFYEETESSDDLEVL [V21L] showed a protein stability index of 2.07. Work on YCAKLCEPQWFYEETESSDDAEVL [V21A] yielded a protein stability index of 2.3. YCAKLCEPQWFYEETESSDDMEVL [V21M] gave a protein stability index of 2.19. Work on YCAKLCEPQWFYEETESSDDREVL [V21R] yielded a protein stability index of 2.27.
